Reference: paper PMC2946090 (Nature, 2010)

Target: the molecule itself
Experiment: crystal structure

B1: CusA efflux pump (full-length CusA membrane protein with a 6xHis tag at the N-terminus) (natural protein, E. coli, UniProt P38054 1-1047, looked up)
chain: MIEWIIRRSVANRFLVLMGALFLSIWGTWTIINTPVDALPDLSDVQVIIKTSYPGQAPQIVENQVTYPLTTTMLSVPGAKTVRGFSQFGDSYVYVIFEDGTDPYWARSRVLEYLNQVQGKLPAGVSAELGPDATGVGWIYEYALVDRSGKHDLADLRSLQDWFLKYELKTIPDVAEVASVGGVVKEYQVVIDPQRLAQYGISLAEVKSALDASNQEAGGSSIELAEAEYMVRASGYLQTLDDFNHIVLKASENGVPVYLRDVAKVQIGPEMRRGIAELNGEGEVAGGVVILRSGKNAREVIAAVKDKLETLKSSLPEGVEIVTTYDRSQLIDRAIDNLSGKLLEEFIVVAVVCALFLWHVRSALVAIISLPLGLCIAFIVMHFQGLNANIMSLGGIAIAVGAMVDAAIVMIENAHKRLEEWQHQHPDATLDNKTRWQVITDASVEVGPALFISLLIITLSFIPIFTLEGQEGRLFGPLAFTKTYAMAGAALLAIVVIPILMGYWIRGKIPPESSNPLNRFLIRVYHPLLLKVLHWPKTTLLVAALSVLTVLWPLNKVGGEFLPQINEGDLLYMPSTLPGISAAEAASMLQKTDKLIMSVPEVARVFGKTGKAETATDSAPLEMVETTIQLKPQEQWRPGMTMDKIIEELDNTVRLPGLANLWVPPIRNRIDMLSTGIKSPIGIKVSGTVLADIDAMAEQIEEVARTVPGVASALAERLEGGRYINVEINREKAARYGMTVADVQLFVTSAVGGAMVGETVEGIARYPINLRYPQSWRDSPQALRQLPILTPMKQQITLADVADIKVSTGPSMLKTENARPTSWIYIDARDRDMVSVVHDLQKAIAEKVQLKPGTSVAFSGQFELLERANHKLKLMVPMTLMIIFVLLYLAFRRVGEALLIISSVPFALVGGIWLLWWMGFHLSVATGTGFIALAGVAAEFGVVMLMYLRHAIEAVPSLNNPQTFSEQKLDEALYHGAVLRVRPKAMTVAVIIAGLLPILWGTGAGSEVMSRIAAPMIGGMITAPLLSLFIIPAAYKLMWLHRHRVRK
  stoichiometry N: 3
